Results reported in PMC7826282.

Molecular target: mutant forms of RUVBL1 and RUVBL2
Experiment: co-IP

co-IP efficiency: < 0.1%
B1: RL-NOP58 (natural protein)
chain: MLVLFETSVGYAIFKVLNEKKLQEVDSLWKEFETPEKANKIVKLKHFEKFQDTAEALAAFTALMEGKINKQLKKVLKKIVKEAHEPLAVADAKLGGVIKEKLNLSCIHSPVVNELMRGIRSQMDGLIPGVEPREMAAMCLGLAHSLSRYRLKFSADKVDTMIVQAISLLDDLDKELNNYIMRCREWYGWHFPELGKIISDNLTYCKCLQKVGDRKNYASAKLSELLPEEVEAEVKAAAEISMGTEVSEEDICNILHLCTQVIEISEYRTQLYEYLQNRMMAIAPNVTVMVGELVGARLIAHAGSLLNLAKHAASTVQILGAEKALFRALKSRRDTPKYGLIYHASLVGQTSPKHKGKISRMLAAKTVLAIRYDAFGEDSSSAMGVENRAKLEARLRTLEDRGIRKISGTGKALAKTEKYEHKSEVKTYDPSGDSTLPTCSKKRKIEQVDKEDEITEKKAKKAKIKVKVEEEEEEKVAEEEETSVKKKKKRGKKKHIKEEPLSEEEPCTSTAIASPEKKKKKKKKRENED
